In patent US10370642B2, “Hematopoietic progenitor cell populations having affinity for E-selectin / L-selectin” (priority 2000, dated 2019):

Key:
CD44 = experiment: [35S]-SO4 metabolic labeling of CD44 in KG1a cells; type: cell-based, human; settings: 10 mM sodium chlorate for 24 hr after bromelain
From the text: To determine if CD44 on KG1a cells is sulfated, KG1a cell cultures were metabolically labeled with [^35S]-SO4. CD44 immunoprecipitated from these cells was indeed sulfated (FIG. 11 A). To test whether sulfation was critical for L-selectin ligand activity of CD44, KG1a cells were pretreated with 0.1% bromelain, a protease that eliminates all KG1a HCLL activity (Sackstein, R. & Dimitroff, C. J. (2000). Blood. 96, 2765-2774) and also removes CD44 from the cell surface (Hale, L. P. & Haynes, B. F. (1992). J. Immunol 149:3809-3816). Following bromelain digestion of KG1a, re-expression of HCELL requires de novo protein synthesis, and protein synthesized in the presence of chlorate (a metabolic inhibitor of both protein and carbohydrate sulfation) is non-sulfated (Sackstein, R., Fu, L. and Allen, K. L. (1997). Blood. 89:2773-2781). Therefore, KG1a was treated with bromelain and confirmed removal of CD44 by flow cytometry. The KG1a cells were cultured in the absence or presence of 10 mM sodium chlorate for 24 hr and metabolically radiolabeled the cells for the last 8 hr of incubation with [^35S]-SO4 in sulfate-deficient CRCM-30 medium. […] This effect of chlorate was specific for sulfate incorporation and not a general inhibition of CD44 protein synthesis, as [^35S]-methionine/cysteine metabolic radioloabeling of CD44 was identical in chlorate- and non-chlorate-treated cell populations.

L-selectin [1] = biological target: T1, L-selectin (Rattus norvegicus, UniProt P30836); experiment: Stamper-Woodruff assay, lymphocyte adherence to immunoprecipitated CD44 and PSGL-1; type: cell-based; settings: 0.75 μg/spot (PSGL-1 1 μg/spot); 80 rpm, 4° C.; 100× mag.
T1 construct: L-selectin naturally expressed on leukocytes; endogenous in cells; host or cells: lymphocytes (rat thoracic duct lymphocytes; human PBMC also prepared)
T1 sequence (P30836 39-372): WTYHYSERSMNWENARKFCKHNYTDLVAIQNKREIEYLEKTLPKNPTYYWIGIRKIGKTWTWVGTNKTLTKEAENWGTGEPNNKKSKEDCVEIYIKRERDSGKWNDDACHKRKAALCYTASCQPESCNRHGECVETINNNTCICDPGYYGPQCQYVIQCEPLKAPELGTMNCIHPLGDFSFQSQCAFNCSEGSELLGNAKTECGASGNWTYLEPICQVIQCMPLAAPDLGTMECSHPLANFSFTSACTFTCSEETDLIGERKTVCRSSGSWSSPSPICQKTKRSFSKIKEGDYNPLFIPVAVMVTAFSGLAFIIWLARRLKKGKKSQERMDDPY
Protocol: These protein spots were then fixed in 3% glutaraldehyde, unreactive aldehyde groups were blocked in 0.2M lysine and slides were kept in RPMI-1640 without NaBicarbonate/2% FBS until ready for testing. Lymphocytes (10^7/ml RPMI-1640 without NaBicarbonate/5% FBS) were overlayed onto these fixed immunoprecipitates and incubated on an orbital shaker at 80 rpm for 30 min. at 4° C. The number of adherent lymphocytes was quantified by light microscopy using an ocular grid under 100× magnification (a minimum of 5 fields/slide, 2 slides/experiment, and 3 separate experiments). Data were presented as the mean number of bound lymphocytes±standard deviation. KG1a CD34 and L-selectin control immunoprecipitates were also tested in this manner. To verify the dependence for sialic acid, glutaraldehyde-fixed spots were treated with Vibrio cholerae neuraminidase (0.1 U/ml RPMI-1640 without NaBicarbonate/2% FBS for lhr at 37° C.).
Immunoaffinity purified material (0.75-3 μg/spot) was spotted onto glass slides for analyses in the Stamper-Woodruff assay (See below for assay description). For autoradiographic analysis of immunoprecipitated [^35S]-methionine-radiolabeled CD44 and PSGL-1, immunoprecipitates were spotted onto glass slides, allowed to dry and exposed Kodak BioMax-MR film for 12 h at −80° C. Densitometric analysis (optical density) of the autoradiograms was performed with a Hewlett-Packard Scanj et 5200C scanner and NIH Image processing and analysis program.

E-selectin [2] = biological target: T2, E-selectin (Homo sapiens, UniProt P16581); experiment: Blot rolling assay with CHO-E cells; type: cell-based; settings: immunoprecipitated CD44 on Western blot; 3.8 dynes/cm^2
T2 construct: stably transfected with full-length cDNA encoding human E-selectin; expressed in transfected cells
T2 sequence (P16581 22-610): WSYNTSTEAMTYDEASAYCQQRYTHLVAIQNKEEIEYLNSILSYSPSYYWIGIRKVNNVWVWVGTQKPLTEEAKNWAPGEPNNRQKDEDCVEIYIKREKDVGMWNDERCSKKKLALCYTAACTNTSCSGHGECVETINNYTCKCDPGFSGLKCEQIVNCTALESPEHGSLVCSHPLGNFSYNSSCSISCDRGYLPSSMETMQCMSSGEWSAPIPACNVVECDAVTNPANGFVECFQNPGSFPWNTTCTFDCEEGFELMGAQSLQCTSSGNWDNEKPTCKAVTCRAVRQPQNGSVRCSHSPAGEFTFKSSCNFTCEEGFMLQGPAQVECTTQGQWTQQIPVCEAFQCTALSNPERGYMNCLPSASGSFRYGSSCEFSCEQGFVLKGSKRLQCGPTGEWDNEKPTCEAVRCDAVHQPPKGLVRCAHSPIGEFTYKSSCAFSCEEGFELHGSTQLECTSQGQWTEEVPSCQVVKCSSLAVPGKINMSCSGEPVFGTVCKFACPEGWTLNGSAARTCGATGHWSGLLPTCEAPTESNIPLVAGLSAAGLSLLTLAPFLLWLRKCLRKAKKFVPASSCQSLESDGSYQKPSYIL
Protocol: The blot rolling assay was performed as previously described (Dimitroff et al., 2000). Briefly, CHO-E, CHO—P or CHO-Mock transfectants were isolated as described above, washed twice in HBSS and suspended at 10^7/ml in HBSS/10 mM HEPES/2mMCaCl2 (H/H/Ca++)/10% glycerol. Western blots of HPC membrane preparations stained with HECA-452 were rendered transparent by incubating them in H/H/Ca++/10% glycerol. The blots were then placed in the parallel-plate flow chamber, and CHO transfectants (2×10^6/ml) were perfused into the chamber. After allowing the cells to come in contact with the blotting membrane, the flow rate was adjusted to exert a shear stress of 3.8 dynes/cm^2. The viscosity of 10% glycerol adhesion assay medium was considered in the calculation of shear stress values. The number of cells rolling on and between each immunostained banding region was quantified under 100× magnification within each field of view on the video monitor using molecular weight markers (Kaleidoscope Molecular Weight Markers, Bio-Rad Lab.; See Blue® from Novex, Inc.) as guides to help align and visualize the apparent molecular weights of the proteins of interest. A minimum of 3 experiments was performed and results were expressed as the mean±SD of cell rolling/field at 100× magnification.

L-selectin [3] = experiment: Blot rolling assay with L-selectin-expressing lymphocytes; type: cell-based; settings: 2.3 dynes/cm^2
Protocol: L-selectin-expressing lymphocytes were isolated as previously described (Oxley, S. M. & Sackstein, R. (1994). Blood. 84:3299-3306; Sackstein, R., Fu, L. and Allen, K. L. (1997) Blood. 89:2773-2781), washed twice in HBSS and suspended at 2×10^7/ml in HBSS/10 mM HEPES/2mMCaCl2 (H/H/Ca^++)/10% glycerol. Cell lysate material is separated by SDS-PAGE and transferred to PVDF under standard blotting conditions. Western blots of KG1a membrane preparations stained with HECA-452, A3D8 or Hermes-1 were rendered transparent by incubating them in H/H/Ca^++/10% glycerol. To study L-selectin-mediated adhesive interactions, the blots were placed in the parallel plate flow chamber and lymphocytes were perfused into the chamber at a shear force of 2.3 dynes/cm^2 and cellular adhesive interactions are observed by video microscopy and analyzed in real time.
The number of lymphocytes rolling on and between each immunostained banding region was quantified from five independent fields under 200× magnification on the video monitor using molecular weight markers as guides to help align and visualize the proteins of interest. A minimum of 3 experiments were performed, and results were expressed as the mean of cell rolling/field.

E-selectin [4] = biological target: T2, E-selectin; experiment: CHO-E cell rolling on immobilized immunoprecipitates, parallel-plate flow chamber; type: cell-based; settings: for E-selectin ligand activity (CHO-E cell rolling): immunoprecipitates on plastic, 2.8 dynes/cm^2
Protocol: CD44 was immunoprecipitated from untreated cell lysates or from cell lysates treated with N-glycosidase-F (0.8 U/ml) Vibrio cholerae neuraminidase (0.1 U/ml) or a-L-fucosidase (80 mU/ml), and PSGL-1 was immunoprecipitated from untreated cell lysates as previously described (Sackstein and Dimitroff, 2000; Dimitroff et al., 2000).
CD44 or PSGL-1 immunoprecipitates were spotted onto plastic petri dishes, fixed in 3% glutaraldehyde and incubated in 0.2M lysine to block unreactive aldehyde groups, and then non-specific binding was prevented by incubating in 100% FBS for 1 hr at RT. Fixed spots were also treated with Vibrio cholerae neuraminidase (0.1 U/ml assay medium), which was overlaid onto the spots and incubated at 37° C. for 1 hr. […] The flow rate was then increased to achieve a shear stress of 2.8 dynes/cm^2. The frequency of cells rolling per 100× magnification field was determined, and data were expressed as the mean±standard deviation of 8 fields visualized from a minimum of 3 experiments.

P-selectin = biological target: T3, P-selectin (Homo sapiens, UniProt P16109); experiment: CHO-P cell rolling on immobilized immunoprecipitates, parallel-plate flow chamber; type: cell-based; settings: 2.8 dynes/cm^2
T3 construct: CHO-P (CHO stably transfected with human cDNA encoding full length P-selectin); expressed in transfected cells
T3 sequence (P16109 42-830): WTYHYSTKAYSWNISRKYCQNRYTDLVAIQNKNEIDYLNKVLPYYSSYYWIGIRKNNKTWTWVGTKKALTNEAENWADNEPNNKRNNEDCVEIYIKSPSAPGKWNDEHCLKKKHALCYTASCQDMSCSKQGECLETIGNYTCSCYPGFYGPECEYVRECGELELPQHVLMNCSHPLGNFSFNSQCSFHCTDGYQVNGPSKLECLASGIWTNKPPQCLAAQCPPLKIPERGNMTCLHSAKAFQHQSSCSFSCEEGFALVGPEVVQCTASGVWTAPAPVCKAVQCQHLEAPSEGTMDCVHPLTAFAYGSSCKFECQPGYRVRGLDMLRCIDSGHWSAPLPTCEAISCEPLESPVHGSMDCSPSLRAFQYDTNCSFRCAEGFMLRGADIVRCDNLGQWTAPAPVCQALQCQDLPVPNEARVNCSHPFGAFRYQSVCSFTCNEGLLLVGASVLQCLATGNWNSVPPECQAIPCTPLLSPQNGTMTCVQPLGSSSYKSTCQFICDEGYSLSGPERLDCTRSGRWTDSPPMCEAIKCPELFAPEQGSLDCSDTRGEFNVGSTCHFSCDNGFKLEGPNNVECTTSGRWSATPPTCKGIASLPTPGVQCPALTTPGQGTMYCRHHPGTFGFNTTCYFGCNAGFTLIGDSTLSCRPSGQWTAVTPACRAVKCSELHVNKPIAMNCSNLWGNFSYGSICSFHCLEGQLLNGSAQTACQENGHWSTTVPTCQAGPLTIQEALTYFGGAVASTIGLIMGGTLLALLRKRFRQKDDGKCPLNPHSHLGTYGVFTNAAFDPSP
Protocol: CD44 or PSGL-1 immunoprecipitates were spotted onto plastic petri dishes, fixed in 3% glutaraldehyde and incubated in 0.2M lysine to block unreactive aldehyde groups, and then non-specific binding was prevented by incubating in 100% FBS for 1 hr at RT. Fixed spots were also treated with Vibrio cholerae neuraminidase (0.1 U/ml assay medium), which was overlaid onto the spots and incubated at 37° C. for 1 hr. The protein dishes were placed in the parallel-plate flow chamber and CHO-E, CHO-P (CHO stably transfected with human cDNA encoding full length P-selectin), CHO-P cells treated with function blocking anti-P-selectin moAb (clone AK-4; Pharmingen) (10 μg/ml), CHO-E cells treated with function blocking anti-E-selectin Abs (10 μg/ml) (clone 68-5H1 1) or Mock transfectants were perfused into the chamber (2×10^6/ml H/H/Ca++) at a flow rate of 0.2 ml/min until the cells were in contact with the substrate. The flow rate was then increased to achieve a shear stress of 2.8 dynes/cm^2. The frequency of cells rolling per 100× magnification field was determined, and data were expressed as the mean±standard deviation of 8 fields visualized from a minimum of 3 experiments.

[O-][Cl+2]([O-])O [chlorate, sodium chlorate]
incorporation of [35S]-SO4 into immunoprecipitable CD44 (Hermes-1) (CD44): completely inhibited

KG1a N-glycosidase-F CD44: CD44 immunoprecipitated from N-glycosidase-F-treated KG1a membrane protein
Mean Number of Bound Lymphocytes (L-selectin [1]): 30.7
E-selectin ligand activity (CHO-E cell rolling) in blot rolling assay (E-selectin [2]): completely abrogated CHO-E cell rolling
L-selectin ligand activity (lymphocyte tethering and rolling) in blot rolling assay (L-selectin [3]): abolished all L-selectin-mediated lymphocyte tethering and rolling
E-selectin ligand activity (CHO-E cell rolling) (E-selectin [4]): abrogated CHO-E cell rolling

B1: KG1a PSGL-1: PSGL-1 immunoaffinity purified (PL-2) from KG1a cells (protein)
chain: QATEYEYLDYDFLPETEPPEMLRNSTDTTPLTGPGTPESTTVEPAARRSTGLDAGGAVTELTTELANMGNLSTDSAAMEIQTTQPAATEAQTTQPVPTEAQTTPLAATEAQTTRLTATEAQTTPLAATEAQTTPPAATEAQTTQPTGLEAQTTAPAAMEAQTTAPAAMEAQTTPPAAMEAQTTQTTAMEAQTTAPEATEAQTTQPTATEAQTTPLAAMEALSTEPSATEALSMEPTTKRGLFIPFSVSSVTHKGIPMAASNLSVNYPVGAPDHISVKQCLLAILILALVATIFFVCTVVLAVRLSRKGHMYPVRNYSPTEMVCISSLLPDGGEGPSATANGGLSKAKSPGLTPEPREDREGDDLTLHSFLP
Mean Number of Bound Lymphocytes (L-selectin [1]): 44.8
E-selectin ligand activity (CHO-E cell rolling) (E-selectin [4]): significantly lower
CHO-E cell rolling (E-selectin [4]; lower shear stress of 0.6 dynes/cm^2): equivalent to that of CD44
P-selectin ligand activity (CHO-P cell rolling) (P-selectin): rolled on KG1a PSGL-1
